From patent US8703452B2, “Extracellular aldonolactonase” (The Regents of the University of California, priority 2010, dated 2014)

What was measured:
[1] = target: S. thermophile aldonolactonase 1 (Thermothelomyces thermophilus, UniProt E5LEX3); conditions: substrate specificity
Protocol: (§1) Aldonolactonase activity was measured as described by Hestrin (21). The reactions were carried out in triplicate in 96-well microtiter plates. Briefly, 100 μL of 100 mM freshly dissolved sugar lactone was immediately mixed with 100 μL of 10 nM aldonolactonase enzyme buffered in 100 mM sodium acetate pH 5.0 for 1 minute at 25° C. The reaction was quenched by adding 40 μL of alkaline hydroxylamine (2.0 M hydroxylamine hydrochloride, 1.5 M sodium hydroxide) for 1 minute. Twenty microliters of 4.0 M hydrochloric acid was then added to acidify the solution and stabilize the sugar hydroxamate. Color was developed by adding 20 μL of 0.5 M ferric chloride (FeCl3) and the absorbance at 540 nm was measured. For all experiments, control measurements were made on control samples where no enzyme was added. The background hydrolysis was subtracted from the total hydrolysis in the presence of enzyme.

[2] = cited from earlier work
[3] = tested on: S. thermophile Aldonolactonase 2 (Spoth1189286); experiment: Standard gluconolactonase assay with recombinant S. thermophile aldonolactonase 2; type: biochemical, Sporotrichum thermophile; conditions: unpurified concentrate, expressed in N. crassa
Protocol: as §1, with “Lactonase activity on gluconolactone was confirmed using the standard gluconolactonase assay (as described in other sections). The protein was not further purified because the affinity purification tag was removed by endogenous proteases in N. crassa. Aldonolactonase” for “Aldonolactonase”, “Hestrin” left out, “Color was developed by adding 20 μL of 0.5 M ferric chloride (FeCl3) and the absorbance at 540 nm was measured.” left out, “enzyme. This typically amounted to less than 10% of the total lactone.” for “enzyme.”

[4] = substrate: O=C1O[C@H](CO)[C@@H](O)[C@H](O)[C@H]1O; experiment: purified protein, by the assay type
[5] = substrate: O=C1O[C@H](CO)[C@@H](O[C@@H]2O[C@H](CO)[C@H](O)[C@H](O)[C@H]2O)[C@H](O)[C@H]1O; experiment: purified protein, by the assay type; conditions: other: steady-state kinetic constants; substrate of S. thermophile aldonolactonase 1; pH 5.0; 25.0 °C
Protocol: (§2) Aldonolactonase activity was measured as described by Hestrin (21). The reactions were carried out in triplicate in 96-well microtiter plates. Briefly, 100 μL of 100 mM freshly dissolved sugar lactone was immediately mixed with 100 μL of 10 nM aldonolactonase enzyme buffered in 100 mM sodium acetate pH 5.0 for 1 minute at 25° C. The reaction was quenched by adding 40 μL of alkaline hydroxylamine (2.0 M hydroxylamine hydrochloride, 1.5 M sodium hydroxide) for 1 minute. Twenty microliters of 4.0 M hydrochloric acid was then added to acidify the solution and stabilize the sugar hydroxamate. Color was developed by adding 20 μL of 0.5 M ferric chloride (FeCl3) and the absorbance at 540 nm was measured. For all experiments, control measurements were made on control samples where no enzyme was added. The background hydrolysis was subtracted from the total hydrolysis in the presence of enzyme. This typically amounted to less than 10% of the total lactone.

[6] = substrate: O=C1O[C@H](CO)[C@@H](O[C@@H]2O[C@H](CO)[C@@H](O)[C@H](O)[C@H]2O)[C@H](O)[C@H]1O; experiment: purified protein, by the assay type; conditions: other: steady-state kinetic constants; substrate of S. thermophile aldonolactonase 1; pH 5.0; 25.0 °C
Protocol: as §2

[7] = Stability of aldonolactonase activity; type: physicochemical
Text: Sporotrichum thermophile is a thermophilic fungus isolated from soil and self-heating compost (3). […] During development of the present disclosure, an enzyme involved in the process of cellulose degradation was isolated from S. thermophile. As disclosed herein, an enzyme containing extracellular aldonolactonase activity was purified, identified, and characterized from the thermophilic ascomycete S. thermophile. The S. thermophile aldonolactonase hydrolyzes hexose δ-lactones over a broad range of pH values. […] (the growth condition for production of the enzyme). The expression profile and kinetic parameters of the S. thermophile aldonolactonase were determined on different substrates. The results disclosed herein provide insight into how S. thermophile utilizes aldonolactonase in nutrient acquisition, especially from hexose δ-lactones and how this enzyme can be utilized for biofuel production.
After 48 hours of growth on complex media containing cellulose, S. thermophile mycelia and residual cellulose were removed from the culture by filtering over 0.2 micron polyethersulfone (PES) filters. The filtered culture broth was then concentrated and buffer exchanged using tangential flow filtration with a 10 kDa molecular weight cut-off (MWCO) PES membrane (Millipore, Billerica, Mass.) into 25 mM 4-(2-hydroxyethyl)-1-piperazineethanesulfonic acid (HEPES) buffer, pH 7.4. […]

[8] = pH profile of S. thermophile aldonolactonase 1; type: biochemical; conditions: from pH 3.0 to pH 8.0; 10 nM enzyme, 50 mM glucono-δ-lactone, room temperature
Protocol: FIG. 9 depicts the pH profile of S. thermophile aldonolactonase 1. Reactions were conducted at room temperature for 1 minute with 10 nM aldonolactonase, 50 mM glucono-δ-lactone, and 100 mM buffer. Buffers used included sodium citrate, pH 3.0; sodium acetate, pH 4.0; sodium acetate, pH 5.0; sodium succinate, pH 6.0; HEPES, pH 7.0; and Tris, pH 8.0. Error bars represent the standard deviation of three replicate experiments.

[9] = Aldonolactonase activity of enzyme preparations on glucono-δ-lactone; type: biochemical; conditions: glucono-δ-lactone as substrate, 25° C., pH 5.0
Protocol: as §1, with “enzyme. This typically amounted to less than 10% of the total lactone.” for “enzyme.”

[10] = other: steady-state kinetic constants, substrate of S. thermophile aldonolactonase 1, pH 5.0, 25.0 °C

For `O=C1O[C@H](CO)[C@H](O)[C@H]1O` [Xylonolactone], the “hydrolysis by S. thermophile aldonolactonase 1” value (“hydrolysis” below) [1] was “not hydrolyzed”.

In the case of `O=C1O[C@H](CO)[C@@H](O[C@@H]2O[C@H](CO)[C@@H](O)[C@H](O)[C@H]2O)[C@H](O)[C@H]1O` [D-Cellobiono-δ-lactone], the “hydrolysis” value [1] is reported as “completely hydrolyze”.

In the case of `O=C1O[C@H](CO)[C@@H](O)[C@H](O)[C@H]1O` [D-Glucono-δ-lactone], the “equilibrium constant between glucono-δ-lactone and gluconic acid” value ([2]; favoring gluconic acid) is listed as 7.7, the half-life ([2]; in water at room temperature and pH 5.0) is listed as “approximately 1 hour” and the “lactonase activity on gluconolactone” value [3] is listed as “confirmed”. The “hydrolysis” value [1] was “completely hydrolyze”.

For `O=C1O[C@H](CO)[C@@H](O[C@@H]2O[C@H](CO)[C@H](O)[C@H](O)[C@H]2O)[C@H](O)[C@H]1O` [D-Lactono-δ-lactone], the “hydrolysis” value [1] was “completely hydrolyze”.

With `O=C1O[C@H](CO)[C@@H](O)[C@@H]1O` [arabinolactone] the “hydrolysis” value [1] was “not hydrolyzed”.

B1: S. thermophile aldonolactonase 1 (Thermothelomyces thermophilus) (protein)
chain: APVCGGGSASDLLWVTTYPAGEGAQGKLLTLKLDGSKLEVVAESDTCGPYPSWLTQAGDVLYCVDEAWGGDHGTLHSLKINDDHSFTNLSQHETVGGPVSTVIYGKDGLGLAVADYAGGGIDTFNIADPAAIKLIKSLVYPAPTDGLPDPQNSARPHEAILDPTGEFLVFPDLGADQIRVLKVDKETLEYVEKPSYTDFDRGTGPRHGAFFKSGDKTFFYLVGELSNLLQGFSVAYNDDDSLTFTRIHNSTTHGDDKPLPEDTAAAELWIAPGSNFLTLSSRFESSLEYTVANGTKVPSDPLITFSIDKETGALTHVQSAPAGGINPRHFSFNSDGTRVASALQSDGRVVVFERDPSTGKIGKATAEGDVEGMPNFATFKQ
For B1, the kcat/Km ([4]; other: 25° C. and pH 5.0) was 600000 M⁻¹ s⁻¹, the Km [4, 10] was 20.3 mM and the kcat [4, 10] was 11700 s⁻¹. It also gave a kcat/Km [4, 10] of 580000 M⁻¹ s⁻¹, a Km [5] of 5.9 mM and a kcat [5] of 7400 s⁻¹. It also gave a kcat/Km [5] of 1.25e+06 ± 520000 M⁻¹ s⁻¹, a Km [6] of 21.6 mM and a kcat [6] of 29100 s⁻¹. It also gave a kcat/Km [6] of 1.35e+06 ± 120000 M⁻¹ s⁻¹.

B2: S. thermophile aldonolactonase 1: extracellular aldonolactonase purified from S. thermophile culture broth, encoded by Spoth11109678 (SEQ ID NO: 1) (protein)
chain: MRTSYGVAFALSAGFRLATAAPVCGGGSASDLLWVTTYPAGEGAQGKLLTLKLDGSKLVVAESDTCGPYPSWLTQAGDVLYCVDEAWGGDHGTLHSLKINDDHSFTNLSQHETVGGPVSTVIYGKDGLGLAVADYAGGGIDTFNIADPAAIKLIKSLVYPAPTDGLPDPQNSARPHEAILDPTGEFLVFPDLGADQIRVLKVDKETLEYVEKPSYTDFDRGTGPRHGAFFKSGDKTFFYLVGELSNLLQGFSVAYNDDDSLTFTRIHNSTTHGDDKPLPEDTAAAELWIAPGSNFLTLSSRFESSLEYTVANGTKVPSDPLITFSIDKETGALTHVQSAPAGGINPRHFSFNSDGTRVASALQSDGRVVVFERDPSTGKIGKATAEGDVEGMPNFATFKQ
modifications: Sporotrichum thermophile; extracellular aldonolactonase 1
With B2 the stability ([7]; 50° C. (growth condition for production of the enzyme)) was “stable for several days”, the “storage stability of aldonolactonase activity” value ([7]; stored at −80° C.) was “stable for several months” and the change in activity [8] was 3 fold. The “activity relative to that reported for lactonases isolated from other filamentous fungi” value [9] was “approximately 20 fold”.
